Measurements: paper PMC11543927, “Subtleties in Clathrin heavy chain binding boxes provide selectivity among adaptor proteins of budding yeast” (Nature Communications, 2024)

T1: Saccharomyces cerevisiae clathrin heavy chain N-terminal domain (ScChc-NTD, 1-369) (Saccharomyces cerevisiae, UniProt P22137 1-369)
T1 construct: Clathrin heavy chain N-terminal domain, Saccharomyces cerevisiae, residues 1-369; pETM-30 vector with a His-GST tag and a TEV cleavage site; also called WT NTD; source: E. coli BL21 (DE3), purified (Ni-NTA, TEV cleavage, reverse Ni-NTA, SEC)
T1 sequence (looked up): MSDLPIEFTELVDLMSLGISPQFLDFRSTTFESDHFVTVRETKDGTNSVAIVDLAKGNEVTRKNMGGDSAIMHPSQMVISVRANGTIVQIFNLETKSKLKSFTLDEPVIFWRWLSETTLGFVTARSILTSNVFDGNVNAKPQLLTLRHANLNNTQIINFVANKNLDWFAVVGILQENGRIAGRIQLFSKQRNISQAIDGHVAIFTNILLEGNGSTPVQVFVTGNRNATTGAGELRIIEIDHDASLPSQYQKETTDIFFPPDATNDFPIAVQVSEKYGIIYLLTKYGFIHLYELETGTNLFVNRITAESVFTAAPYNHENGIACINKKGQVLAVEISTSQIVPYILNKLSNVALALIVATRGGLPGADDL

T2: ScChc-NTD Clathrin and Arrestin box mutant (Cla+Arr) (Saccharomyces cerevisiae, UniProt P22137 1-369, K63E | I87D | Q89A | K98E | Q195A | I197T | K251E)
T2 construct: Clathrin heavy chain N-terminal domain, Saccharomyces cerevisiae, residues 1-369, Clathrin and Arrestin box mutant
T2 sequence (looked up): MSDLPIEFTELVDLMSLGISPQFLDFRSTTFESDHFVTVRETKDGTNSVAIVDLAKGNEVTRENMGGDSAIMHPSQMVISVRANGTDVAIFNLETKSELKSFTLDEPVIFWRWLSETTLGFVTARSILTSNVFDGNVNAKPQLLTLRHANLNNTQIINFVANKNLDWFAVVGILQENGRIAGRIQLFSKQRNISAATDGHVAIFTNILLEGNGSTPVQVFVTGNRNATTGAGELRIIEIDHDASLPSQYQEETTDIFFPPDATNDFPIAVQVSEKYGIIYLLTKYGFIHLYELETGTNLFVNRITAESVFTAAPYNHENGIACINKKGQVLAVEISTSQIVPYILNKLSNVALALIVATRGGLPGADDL

T3: ScChc-NTD Arrestin and W box mutant (Arr+W) (Saccharomyces cerevisiae, UniProt P22137 1-369, F26A | Q155A | Q195A | I197T | K251E)
T3 construct: Clathrin heavy chain N-terminal domain, Saccharomyces cerevisiae, residues 1-369, Arrestin and W box mutant
T3 sequence (looked up): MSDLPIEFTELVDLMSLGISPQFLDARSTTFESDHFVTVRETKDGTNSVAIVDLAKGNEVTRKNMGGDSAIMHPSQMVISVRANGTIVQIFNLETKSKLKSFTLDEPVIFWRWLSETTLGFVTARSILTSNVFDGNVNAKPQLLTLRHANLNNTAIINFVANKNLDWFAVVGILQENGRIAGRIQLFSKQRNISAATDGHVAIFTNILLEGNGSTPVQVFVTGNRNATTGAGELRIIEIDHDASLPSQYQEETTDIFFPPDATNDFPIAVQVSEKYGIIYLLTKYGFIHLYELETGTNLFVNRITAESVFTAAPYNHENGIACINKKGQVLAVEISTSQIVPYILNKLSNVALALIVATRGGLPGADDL

T4: ScChc-NTD Clathrin and W box mutant (Cla+W) (Saccharomyces cerevisiae, UniProt P22137 1-369, F26A | K63E | I87D | Q89A | K98E | Q155A)
T4 construct: Clathrin heavy chain N-terminal domain, Saccharomyces cerevisiae, residues 1-369, Clathrin and W box mutant
T4 sequence (looked up): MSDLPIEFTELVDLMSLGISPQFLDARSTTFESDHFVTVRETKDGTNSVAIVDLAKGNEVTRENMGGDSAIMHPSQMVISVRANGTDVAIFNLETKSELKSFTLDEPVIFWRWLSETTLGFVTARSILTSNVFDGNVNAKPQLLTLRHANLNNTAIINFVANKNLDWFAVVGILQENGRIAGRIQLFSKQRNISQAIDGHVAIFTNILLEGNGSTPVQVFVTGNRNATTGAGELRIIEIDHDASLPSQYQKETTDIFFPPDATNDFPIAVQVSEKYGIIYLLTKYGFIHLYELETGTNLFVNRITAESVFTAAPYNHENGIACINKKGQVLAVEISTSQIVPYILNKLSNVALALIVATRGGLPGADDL

T5: ScChc-NTD W-box mutant (F26A, Q155A) (Saccharomyces cerevisiae, UniProt P22137 1-369, F26A | Q155A)
T5 construct: Clathrin heavy chain N-terminal domain, Saccharomyces cerevisiae, residues 1-369, W-box mutant; also called W mutant
T5 sequence (looked up): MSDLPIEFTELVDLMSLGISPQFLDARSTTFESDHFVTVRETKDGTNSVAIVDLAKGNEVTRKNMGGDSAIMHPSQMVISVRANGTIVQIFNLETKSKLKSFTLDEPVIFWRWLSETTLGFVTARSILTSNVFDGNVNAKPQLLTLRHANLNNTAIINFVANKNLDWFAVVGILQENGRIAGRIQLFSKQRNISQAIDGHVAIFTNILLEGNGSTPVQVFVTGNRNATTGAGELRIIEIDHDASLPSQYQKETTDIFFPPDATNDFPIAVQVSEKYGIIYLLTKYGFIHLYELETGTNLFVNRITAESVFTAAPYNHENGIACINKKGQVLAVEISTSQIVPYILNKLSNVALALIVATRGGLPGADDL


Experiments:
Conditions in all cases: both partners purified
[1] = target: T1, Saccharomyces cerevisiae clathrin heavy …; assay: nanoDSF thermal shift; ScChc-NTD 8 µM incubated with eleven peptide concentrations (1:1 dilutions) for 15 min, heated 20-95 °C at 1 °C/min, SEC buffer (50 mM Tris pH 9, 150 mM NaCl, 0.5 mM TCEP); apparent KD from the Tm shift model, one to one binding assumed, global average over all boxes
[2] = target: T2, ScChc-NTD Clathrin and Arrestin box …; assay: nanoDSF thermal shift; ScChc-NTD mutants 10 µM with Ent1 or Ent2 peptide, thermal ramp up to 80 °C; apparent KD from the Tm shift model
[3] = target: T3, ScChc-NTD Arrestin and W box mutant …; assay: as above
[4] = target: T4, ScChc-NTD Clathrin and W box mutant …; assay: as above
[5] = target: T5, ScChc-NTD W-box mutant (F26A, Q155A); assay: as above

Row | Binder | Kd [1] | Kd [2] | binding result [3] | fold decrease in binding against WT NTD [4] | binding result [5] | fold decrease in affinity against WT NTD [2]
1 | GYTLIDL (also called Ent1 peptide; source: synthetic peptide, bought: NovoProLabs) [Ent1 CBM peptide (GYTLIDL)] | ~138 µM | ~2050 µM | binds | ~9 fold | binds | 
2 | GVSLIDL (also called Ent2 peptide; source: synthetic peptide, bought: NovoProLabs) [Ent2 CBM peptide (GVSLIDL)] | ~177 µM |  | binds | ~9 fold | binds | ~5 fold
